Substitutions are numbered along the chain they refer to.
T1: TIGIT-huIgG1 (human, UniProt Q495A1 22-141)
T1 construct: also called Human Fc-tagged TIGIT; TIGIT-huIgG1 fusion protein
T1 sequence: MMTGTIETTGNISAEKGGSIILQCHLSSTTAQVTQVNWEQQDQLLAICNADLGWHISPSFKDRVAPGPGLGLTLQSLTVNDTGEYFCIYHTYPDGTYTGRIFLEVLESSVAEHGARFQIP

T2: human TIGIT (form in the assay not stated) (human, UniProt Q495A1 22-141, limits assumed)
T2 construct: whole entry named
T2 sequence: T1 sequence

T3: full-length human TIGIT on cells (human, UniProt Q495A1 22-244)
T3 construct: Used for engineered cells (NK92mi/TIGIT, NK92MI/TIGIT-DNAM-1, Jurkat/TIGIT) and for TIGIT on human blood cells; also called native TIGIT; huTIGIT
T3 sequence: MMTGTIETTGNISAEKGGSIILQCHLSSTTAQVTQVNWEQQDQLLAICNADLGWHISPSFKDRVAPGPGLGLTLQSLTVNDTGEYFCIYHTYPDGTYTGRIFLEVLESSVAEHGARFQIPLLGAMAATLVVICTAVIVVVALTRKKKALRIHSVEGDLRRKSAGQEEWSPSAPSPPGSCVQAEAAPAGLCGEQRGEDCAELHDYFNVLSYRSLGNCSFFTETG

T4: TIGIT-his (human, UniProt Q495A1 22-141)
T4 construct: also called human TIGIT; not shown: his tag
T4 sequence: T1 sequence

T5: TIGIT-mIgG2a (human; mouse, UniProt Q495A1 22-141)
T5 construct: also called soluble TIGIT; TIGIT-mIgG2a fusion protein
T5 sequence: T1 sequence

T6: humanized TIGIT of humanized TIGIT knock-in mice, on CD3+ splenocytes
T6 chain: T1 sequence

B1: mu1217 (antibody, V domains shown)
VH: EVKLVESGGGLVQPGGSLKLSCATSGFTFSDYYMYWIRQTPEKRLEWVAYITKGGGSTYYPDTVKGRFTISRDNAKNTLYLQVSRLKSEDTAIYYCARQTNYDFTMDYWGQGTSVTVSS
VL: DIVMTQSHKFMSTSVGDRVSIICKASQDVGTSVAWYQQKPGQSPNLLIYWASARHTGVPDRFTGSGSGTDFTLTISNVQSEDLADYFCQQYSSYPLTFGAGTKLELK
notes: Purified murine hybridoma antibody; also called murine anti-TIGIT mAb mu1217
B2: ch1217 (antibody, V domains shown)
VH: B1 VH
VL: B1 VL
notes: Chimeric: mu1217 variable domains fused to human IgG1mf/kappa constant regions; not shown: human kappa light chain constant region
B3: hu1217-1-1 (antibody, V domains shown)
VH: EVQLVESGGGLVQPGGSLRLSCATSGFTFSDYYMYWIRQAPGKGLEWVAYITKGGGSTYYPDSVKGRFTISRDNAKNTLYLQMNSLRAEDTAVYYCARQTNYDFTMDYWGQGTLVTVSS
VL: EIVMTQSPATLSVSPGERATLSCKASQDVGTSVAWYQQKPGQAPRLLIYWASARHTGVPARFSGSGSGTEFTLTISSLQSEDFAVYYCQQYSSYPLTFGGGTKVEIK
notes: Full-length human IgG1mf/kappa format; not shown: human kappa light chain constant region
B4: hu1217-2-2/IgG1wt (antibody, V domains shown)
VH: B3 VH with T24A, I37V
VL: B3 VL with V58I
notes: Humanized version with a wild-type IgG1 Fc region and the same VH and VL as hu1217-2-2/IgG1mf
B5: hu1217-2-2 (as named in Examples 12 to 14, Fc format not stated) (antibody, V domains shown)
VH: B3 VH with T24A, I37V
VL: B3 VL with V58I
notes: kept apart from m7 and m8 for that reason; also called Antibody hu1217-2-2
B6: hu1217-2-2/IgG1mf (antibody, V domains shown)
VH: B3 VH with T24A, I37V
VL: B3 VL with V58I
notes: not shown: human kappa light chain constant region

What was measured:
TIGIT-huIgG1 [1] = target: T1, TIGIT-huIgG1; experiment: SPR (BIAcore T-200); human Fc-tagged TIGIT captured by anti-human IgG, antibody as analyte
Experimental: (§1) Briefly, anti-human IgG antibody was immobilized on an activated CM5 biosensor chip (Cat. No.: BR100530, GE Life Sciences). Human Fc-tagged TIGIT was flowed over the chip surface and captured by anti-human IgG antibody. Then a serial dilution (0.12 nM to 10 nM) of purified murine antibodies were flowed over the chip surface and changes in surface plasmon resonance signals were analyzed to calculate the association rates (kₒₙ) and dissociation rates (koff) by using the one-to-one Langmuir binding model (BIA Evaluation Software, GE Life Sciences). The equilibrium dissociation constant (KD) was calculated as the ratio koff/kₒₙ.

TIGIT-huIgG1 [2] = target: T1, TIGIT-huIgG1; experiment: SPR (BIAcore T-200); human Fc-tagged TIGIT captured by anti-human IgG, antibody as analyte; column head prints nM, koff/kon gives M
Experimental: as §1

[3] = target: T2, human TIGIT (form in the assay not …); experiment: SPR; antibody captured on anti-human Fc surface, TIGIT analyte not named; Test 1
Source text: (§2) For affinity determination, antibodies were captured by anti-human Fc surface, and used in the affinity-assay based on surface plasmon resonance (SPR) technology.

[4] = target: T3, full-length human TIGIT on cells; experiment: flow cytometry on living NK92mi/TIGIT cells, goat anti-human IgG detection; Test 1
Experimental: (§3) To evaluate the binding activity of anti-TIGIT antibodies to native TIGIT on living cells, NK92mi cells were engineered to over-express human TIGIT. Living NK92mi/TIGIT cells were seeded in 96-well plate and were incubated with a series of dilutions of anti-TIGIT antibodies. Goat anti-Human IgG was used as secondary antibody to detect antibody binding to the cell surface. EC₅₀ values for dose-dependent binding to human native TIGIT were determined by fitting the dose-response data to the four-parameter logistic model with GraphPad Prism. As show in FIG. 4A-B and Table 6.

[5] = target: T2, human TIGIT (form in the assay not …); experiment: SPR; antibody captured on anti-human Fc surface, TIGIT analyte not named; Test 2
Source text: as §2

[6] = target: T3, full-length human TIGIT on cells; experiment: flow cytometry on living NK92mi/TIGIT cells, goat anti-human IgG detection; Test 2
Experimental: as §3

[7] = target: T2, human TIGIT (form in the assay not …); experiment: SPR; antibody captured on anti-human Fc surface, TIGIT analyte not named; mean of Tests 1 and 2
Source text: as §2

TIGIT-his [8] = target: T4, TIGIT-his; experiment: SPR; antibody immobilized on CM5 chip, TIGIT-his as analyte, HBS pH 6.0
TIGIT-his [9] = target: T4, TIGIT-his; experiment: SPR; antibody immobilized on CM5 chip, TIGIT-his as analyte, HBS pH 7.4
TIGIT-mIgG2a [10] = target: T5, TIGIT-mIgG2a; experiment: flow cytometry; blockade of soluble TIGIT binding to PVR on HEK293/PVR cells
Source text: (§4) To determine whether anti-TIGIT antibodies could block TIGIT-PVR and TIGIT-PVR-L2 interactions, HEK293 cells were engineered to express high levels of PVR or PVR-L2. The resultant cell lines were named HEK293/PVR and HEK293/PVR-L2, respectively. […] The blockade of TIGIT-ligand interaction was quantitatively measured by adding serially diluted anti-TIGIT antibodies.

TIGIT-mIgG2a [11] = target: T5, TIGIT-mIgG2a; experiment: flow cytometry; blockade of soluble TIGIT binding to PVR-L2 on HEK293/PVR-L2 cells
Source text: as §4

TIGIT-his [12] = target: T4, TIGIT-his; experiment: SPR; antibody immobilized on CM5 chip, TIGIT-his as analyte, HBS pH 6.0; column head prints nM, koff/kon gives M
TIGIT-his [13] = target: T4, TIGIT-his; experiment: SPR; antibody immobilized on CM5 chip, TIGIT-his as analyte, HBS pH 7.4; column head prints nM, koff/kon gives M
[14] = target: T6, humanized TIGIT of humanized TIGIT …; experiment: TIGIT receptor occupancy assay on CD3+ splenocytes from humanized TIGIT knock-in mice
[15] = target: T3, full-length human TIGIT on cells; experiment: TIGIT receptor occupancy assay on CD3+ human peripheral blood mononuclear cells; CD3+ human peripheral blood mononuclear cells
[16] = target: T2, human TIGIT (form in the assay not …); experiment: SPR; antibody captured on anti-human Fc surface, TIGIT analyte not named; Test 1; Test 1
Source text: as §2

Binder | Kd [3] | koff [3] | kon [3] | EC50 [4] | Kd [5] | koff [5] | kon [5] | EC50 [6] | Kd [7] | IC50 (TIGIT-mIgG2a [10]) | IC50 (TIGIT-mIgG2a [11]) | other results
B1 | – | – | – | – | – | – | – | – | – | – | – | koff (TIGIT-huIgG1 [1]): 3.96e-05 s⁻¹; kon (TIGIT-huIgG1 [1]): 4.33e+06 M⁻¹ s⁻¹; Kd (TIGIT-huIgG1 [2]): 0.00915 nM
B2 | 0.283 nM | 0.000443 s⁻¹ | 1.56e+06 M⁻¹ s⁻¹ | 0.1 mg/L | – | – | – | – | – | – | – | –
B3 | 0.309 nM | 0.000448 s⁻¹ | 1.45e+06 M⁻¹ s⁻¹ | 0.114 mg/L | 0.52 nM | 0.000694 s⁻¹ | 1.33e+06 M⁻¹ s⁻¹ | 0.084 mg/L | 0.415 nM | – | – | –
B4 | – | – | – | – | – | – | – | – | – | 0.64 mg/L | 0.25 mg/L | koff (TIGIT-his [8]): 7.6e-05 s⁻¹; kon (TIGIT-his [8]): 2.54e+06 M⁻¹ s⁻¹; koff (TIGIT-his [9]): 9.53e-05 s⁻¹; kon (TIGIT-his [9]): 434000 M⁻¹ s⁻¹; Kd (TIGIT-his [12]): 0.0299 nM; Kd (TIGIT-his [13]): 0.219 nM
B5 | – | – | – | – | – | – | – | – | – | – | – | EC50 [14]: 0.0488 mg/L; EC50 [15]: 0.0632 mg/L
B6 | 0.127 nM | 0.000229 s⁻¹ | – | – | 0.404 nM | 0.000608 s⁻¹ | 1.5e+06 M⁻¹ s⁻¹ | 0.068 mg/L | 0.266 nM | 0.55 mg/L | 0.18 mg/L | kon [16]: 1.8e+06 M⁻¹ s⁻¹
